# Reference: US6150168
# Columns and labels:
# [1] = molecular target: ASOR receptor (asialoglycoprotein receptor) on primary mouse hepatocytes (mouse) (UniProt P34927)
# [2] = molecular target: ASOR receptor (asialoglycoprotein receptor) on primary mouse hepatocytes (mouse) (UniProt P34927); remark: listed apart in the source
# [3] = molecular target: ASOR receptor (asialoglycoprotein receptor) on primary mouse hepatocytes (mouse) (UniProt P34927); settings: scale: % conversion of phenylalanine to tyrosine
# [4] = molecular target: adenovirus receptor on primary mouse hepatocytes (mouse)
# [5] = molecular target: ASOR receptor (asialoglycoprotein receptor) on primary mouse hepatocytes (mouse) (UniProt P34927); remark: listed apart in the source
# [6] = molecular target: ASOR receptor on HepG2 cells
substance,measurement,setting,value
ASOR/poly-L-lysine conjugate (ASOR/PLL conjugate),"percentage of cells expressing β-gal, ASOR-PLL/DNA complexes with free adenovirus, in the presence of a 1000-fold excess of free ASOR",[1],< 2 % of cells
same,"percentage of cells staining blue, complex containing adenovirus conjugated with PLL at high EDC concentrations, in the presence of a 1000-fold excess of free ASOR",[1],< 30 % of cells
same,"percentage of cells staining positive for beta-gal, complex containing adenovirus conjugated with PLL at low EDC concentrations, in the presence of a 1000-fold excess of free ASOR",[1],80 % of cells
same,canine factor IX (cFIX) level in supernatants of primary mouse hepatocytes after delivery of pCMV/cFIX with the high EDC ADV-PLL/DNA complex (µg/10^6 cells/24 hours),[2],0.79
same,phenylalanine hydroxylase activity (percent conversion of phenylalanine to tyrosine) in PAH deficient mouse hepatocytes after delivery of CMV/hPAH DNA in complex form with adenovirus,[3],26
adenovirus (d1312) conjugated with PLL at low EDC concentrations,"percentage of cells staining positive for beta-gal after delivery with the low EDC ADV-PLL/DNA complex, in the presence of a 1000-fold excess of free ASOR",[4],80 % of cells
asialoorosomucoid (ASOR) (ligand),internalized ^3 H counts after a 2 hour incubation (dose-response of ^3 H-ASOR uptake) (molecules/cell),[5],320000
same,internalized ^3 H counts after a 2 hour incubation (dose-response of ^3 H-ASOR uptake) (molecules/cell),[6],150000
